Measurements as given in US20220389118A1 (Chugai, published 2022).
Where a chain is given by its changes, count along the chain named. In names and notes the source's numbering stands. Like-named read-outs stand apart in the source and are kept apart here.

How the values were obtained:
[1] = target: T1, human FcγRIIa type H (allotype H131) extracellular domain with C-terminal His tag (human, UniProt P12318 34-217); experiment: SPR (Biacore), antibody captured, FcγR analyte
T1 construct: extracellular domain; also called FcγRIIaH; FcγRIIa H type; not shown: His tag at the C terminus
T1 sequence (looked up): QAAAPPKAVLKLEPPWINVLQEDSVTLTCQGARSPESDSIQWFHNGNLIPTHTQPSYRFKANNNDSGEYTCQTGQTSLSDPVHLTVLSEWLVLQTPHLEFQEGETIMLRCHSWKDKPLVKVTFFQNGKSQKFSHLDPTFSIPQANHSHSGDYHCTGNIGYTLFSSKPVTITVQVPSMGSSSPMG

[2] = target: T2, human FcγRIIIa type V (allotype V158) extracellular domain with C-terminal His tag (human, UniProt P08637 17-208); experiment: SPR (Biacore), antibody captured, FcγR analyte
T2 construct: extracellular domain; also called FcγRIIIaV; FcγRIIIa V type; not shown: His tag at the C terminus

[3] = target: T3, human FcγRIa extracellular domain with C-terminal His tag (human, UniProt P12314 16-292); experiment: SPR (Biacore), antibody captured, FcγR as analyte
T3 construct: also called FcgRIa
T3 sequence (P12314 16-292): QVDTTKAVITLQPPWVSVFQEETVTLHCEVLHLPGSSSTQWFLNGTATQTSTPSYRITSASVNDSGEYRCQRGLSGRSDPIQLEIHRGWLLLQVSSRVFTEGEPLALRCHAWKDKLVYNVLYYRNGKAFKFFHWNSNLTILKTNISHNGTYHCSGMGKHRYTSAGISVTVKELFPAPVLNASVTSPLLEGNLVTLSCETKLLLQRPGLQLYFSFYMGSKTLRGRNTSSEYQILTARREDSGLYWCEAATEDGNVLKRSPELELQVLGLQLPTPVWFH

[4] = target: T4, human FcγRIIa type R extracellular domain with C-terminal His tag (human, UniProt P12318 34-217); experiment: SPR (Biacore), antibody captured, FcγR as analyte
T4 construct: extracellular domain; also called FcγRIIaR; FcgRIIaR
T4 sequence (looked up): T1 sequence (looked up) with H134R

[5] = target: T5, human FcγRIIb extracellular domain with C-terminal His tag (human, UniProt P31994 43-217); experiment: SPR (Biacore), antibody captured, FcγR as analyte
T5 construct: extracellular domain; also called FcgRIIb
T5 sequence (looked up): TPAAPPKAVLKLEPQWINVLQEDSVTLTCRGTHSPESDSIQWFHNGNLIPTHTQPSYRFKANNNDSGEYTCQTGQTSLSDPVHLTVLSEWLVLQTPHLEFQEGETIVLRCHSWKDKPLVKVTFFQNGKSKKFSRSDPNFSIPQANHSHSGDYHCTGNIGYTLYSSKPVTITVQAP

[6] = target: T6, human FcγRIIa type R extracellular domain with C-terminal His tag (human, UniProt P12318 34-217); experiment: SPR, Ref. Ex. 25
T6 construct: extracellular domain; also called FcγRIIaR; FcγRIIa R
T6 sequence (looked up): T1 sequence (looked up) with H134R

[7] = target: T7, human FcγRIIb extracellular domain with C-terminal His tag (human, UniProt P31994 43-217); experiment: SPR, Ref. Ex. 25
T7 construct: extracellular domain; for crystals expressed with kifunensine and trimmed with Endo F1; also called FcγRIIb extracellular region
T7 sequence (looked up): T5 sequence (looked up)

[8] = target: T8, human FcγRIIIa type V extracellular domain with C-terminal His tag (human, UniProt P08637 17-208); experiment: SPR, Ref. Ex. 25
T8 construct: extracellular domain; also called FcγRIIIaV; FcγRIIIa V type
T8 sequence (P08637 17-208 F176V): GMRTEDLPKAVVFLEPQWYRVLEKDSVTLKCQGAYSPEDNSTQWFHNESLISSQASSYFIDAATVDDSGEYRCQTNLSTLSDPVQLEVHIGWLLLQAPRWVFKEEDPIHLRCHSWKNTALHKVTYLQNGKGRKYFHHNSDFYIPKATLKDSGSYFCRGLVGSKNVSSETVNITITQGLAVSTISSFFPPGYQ

[9] = target: T9, human FcγRIIa type R (R131) extracellular domain with C-terminal His tag (human, UniProt P12318 34-217); experiment: SPR (Biacore), antibody captured, FcγR analyte
T9 construct: extracellular domain; also called FcγRIIaR; not shown: His tag at the C terminus
T9 sequence (looked up): T1 sequence (looked up) with H134R

[10] = target: T10, human FcγRIIa type R extracellular domain with C-terminal His tag (human, UniProt P12318 34-217); experiment: SPR (Biacore)
T10 construct: extracellular domain; also called FcγRIIaR; FcgRIIaR
T10 sequence (looked up): T1 sequence (looked up) with H134R

[11] = target: T11, human FcγRIIIa type V extracellular domain with C-terminal His tag (human, UniProt P08637 17-208); experiment: SPR (Biacore)
T11 construct: extracellular domain; also called FcγRIIIaV; FcgRIIIaV
T11 sequence (P08637 17-208 F176V): as above

[12] = target: T9, human FcγRIIa type R (R131) …; experiment: SPR (Biacore), antibody captured, FcγR analyte; remark: listed apart in the source
[13] = target: T12, human FcγRIa extracellular domain with C-terminal His tag (human, UniProt P12314 16-292); experiment: SPR (Biacore), antibody captured, FcγR analyte
T12 construct: not shown: His tag at the C terminus
T12 sequence (P12314 16-292): as the sequence (P12314 16-292) above

[14] = target: T13, human FcγRIIa type H (H131) extracellular domain with C-terminal His tag (human, UniProt P12318 34-217); experiment: SPR (Biacore), antibody captured, FcγR analyte
T13 construct: extracellular domain; also called FcγRIIaH; not shown: His tag at the C terminus
T13 sequence (looked up): T1 sequence (looked up)

[15] = target: T14, human FcγRIIb extracellular domain with C-terminal His tag (human, UniProt P31994 43-217); experiment: SPR (Biacore), antibody captured, FcγR analyte
T14 construct: extracellular domain; not shown: His tag at the C terminus
T14 sequence (looked up): T5 sequence (looked up)

[16] = target: T15, human FcγRIIb extracellular domain with C-terminal His tag (human, UniProt P31994 43-217); experiment: SPR (Biacore), antibody captured, FcγR analyte; remark: listed apart in the source
T15 construct: extracellular domain; not shown: His tag at the C terminus
T15 sequence (looked up): T5 sequence (looked up)

T2 sequence (P08637 17-208 F176V): as the sequence (P08637 17-208 F176V) above

B1: IL6R-BP241/IL6R-L (antibody, human IgG1, kappa)
heavy: QVQLQESGPGLVKPSETLSLTCAVSGHSISHDHAWSWVRQPPGEGLEWIGFISYSGITNYNPSLQGRVTISRDNSKNTLYLQMNSLRAEDTAVYYCARSLARTTAMDYWGEGTLVTVSSASTKGPSVFPLAPSSKSTSGGTAALGCLVKDYFPEPVTVSWNSGALTSGVHTFPAVLQSSGLYSLSSVVTVPSSSLGTQTYICNVNHKPSNTKVDKKVEPKSCDKTHTCPPCPAPDLLGDDSVFLFPPKPKDTLMISRTPEVTCVVVDVSDEDGEVKFNWYVDGVEVHNAKTKPREEQYNSTYRVVSVLTVLHQDWLNGKEYKCKVSNDALPRPIEKTISKAKGQPREPQVYTLPPSRDELTKNQVSLTCLVKGFYPSDIAVEWESNGQPENNYKTTPPVLDSDGSFFLYSKLTVDKSRWQQGNVFSCSVMHEALHNHYTQESLSLSP
light: not shown
notes: copies: 2 + 2
- Kd [1]: 9000 nM

B2: IL6R-BP231/IL6R-L (antibody, human IgG1, kappa)
heavy: B1 heavy with D235E, Y298D, D328K
light: not shown
notes: copies: 2 + 2
- Kd [2]: 40000 nM

B3: IL6R-BP119/IL6R-L (antibody, human IgG1, kappa)
heavy: B1 heavy with D235E, D239G, D270H, G273P, D328M, R332A
light: not shown
notes: IgG1 type
- Kd [3]: 7 nM
- Kd [4]: 9900 nM
- KD(IIb) of parent polypeptide/KD(IIb) of altered polypeptide [5]: 2.7 fold vs IL6R-B3/IL6R-L

B4: IL6R-PD079/IL6R-L (antibody, human IgG1, kappa)
heavy: B1 heavy with D235E, D239A, M254Y, D270H, G273P, D328K, R332A, N436Y, E441K
light: not shown
notes: also called P238D/G237A; G237A/P238D; copies: 2 + 2
- Kd [6]: 32000 nM
- Kd [7]: 3000 nM
- Kd [8]: 37000 nM

B5: IL6R-BP348/IL6R-L (antibody, human IgG1, kappa)
heavy: B1 heavy with S269A, D270E, D328K, R332A
light: not shown
notes: S267A introduced into IL6R-BP267; copies: 2 + 2
- Kd [9]: 700 nM

B6: IL6R-BP085/IL6R-L (antibody, human IgG1, kappa)
heavy: B1 heavy with D235E, D270H, G273P, D328K, R332K
light: not shown
notes: EU numbering; alterations on IL6R-B3; copies: 2 + 2
- Kd [10]: 4200 nM
- Kd [11]: 68000 nM

B7: IL6R-BP474/IL6R-L (antibody, human IgG1, kappa)
heavy: B1 heavy with Y298D, D328K, R332S, P333S
light: not shown
notes: A330S and P331S introduced into IL6R-BP230; copies: 2 + 2
- Kd [12]: 3000 nM

B8: IL6R-BP456/IL6R-L (antibody, human IgG1, kappa)
heavy: B1 heavy with S269A, D270E, D328K, P398M
light: not shown
notes: P396M introduced into IL6R-BP423; copies: 2 + 2
- Kd [13]: 0.6 nM
- Kd [14]: 2000 nM

B9: IL6R-BP228/IL6R-L (antibody, human IgG1, kappa)
heavy: B1 heavy with D235E, L236Y, S269Q
light: not shown
notes: copies: 2 + 2
- Kd [15]: 40 nM

B10: IL6R-BP520/IL6R-L (antibody, human IgG1, kappa)
heavy: B1 heavy with D270E, E274M, D328K, R332A
light: not shown
notes: E272M introduced into IL6R-BP267; copies: 2 + 2
- Kd [9]: 3000 nM

B11: IL6R-BP447/IL6R-L (antibody, human IgG1, kappa)
heavy: B1 heavy with S269A, D270E, D328K, P398A
light: not shown
notes: P396A introduced into IL6R-BP423; copies: 2 + 2
- Kd [13]: 0.9 nM
- Kd [14]: 2000 nM

B12: IL6R-BP237/IL6R-L (antibody, human IgG1, kappa)
heavy: B1 heavy with L236Y, S269Q, Y298D, D328A, R332K
light: not shown
notes: copies: 2 + 2
- Kd [15]: 100 nM

B13: IL6R-BP367/IL6R-L (antibody, human IgG1, kappa)
heavy: B1 heavy with D270E, E271D, D328K, R332A
light: not shown
notes: E269D introduced into IL6R-BP267; copies: 2 + 2
- Kd [16]: 100 nM

B14: IL6R-BP517/IL6R-L (antibody, human IgG1, kappa)
heavy: B1 heavy with D270E, E274I, D328K, R332A
light: not shown
notes: E272I introduced into IL6R-BP267; copies: 2 + 2
- Kd [9]: 2100 nM

B15: IL6R-PD080/IL6R-L (antibody, human IgG1, kappa)
heavy: B1 heavy with D235E, M254Y, D270H, G273P, D328K, R332A, N436Y, E441K
light: not shown
notes: also called P238D/G237D; G237D/P238D; copies: 2 + 2
- Kd [6]: 21000 nM
- Kd [7]: 2000 nM
- Kd [8]: 43000 nM
